Experiment [1] deals with fluorescent BACH1-derived peptide (Fluorescein-GGSRSTpSPTFNK-NH2). The experiment is described as follows: fluorescence polarisation.
Experiment [2] deals with wild-type BRCA1 BRCT domain (human, UniProt P38398). The experiment is described as follows: fluorescence polarisation. (In fluorescence polarisation assays a small probe gives low polarisation when free and higher when bound to something large.)

Data on two molecules can be found in article PMC3100782 (Biochemistry, 2011).

The Kd is a measure of binding affinity in units of concentration. A higher Kd goes with lower affinity.

Non-standard residues stand in square brackets, D forms with d. pS = N[C@@H](COP(=O)(O)O)C(=O)O

In turn, “BRCA1 BRCT domain R1699W variant (from UniProt P38398) (domain or fragment)” came in with a Kd in experiment [1] greater than 200 µM.

B1: fluorescent BACH1-derived peptide (Fluorescein-GGSRSTpSPTFNK-NH2) (peptide)
peptide: Fluorescein-GGSRST[pS]PTFNK-NH2
Molecule B1 gave an equilibrium dissociation constant (Kd) in experiment [2] of 1.2 ± 0.1 µM.
